Assays:
Test in all cases: purified protein
Type in all cases: biochemical, Arabidopsis thaliana
purified protein [1] = substrate: C=CC(C)=O; conditions: 0.2 mM NADPH; substrate 0.05 to 1.6 mM
purified protein [2] = substrate: CC(=O)[C@H]1CC[C@H]2[C@@H]3CCC4=CC(=O)CC[C@]4(C)[C@H]3CC[C@]12C; conditions: 0.2 mM NADPH; substrate 0.05 to 1.6 mM
purified protein [3] = substrate: NC(=O)C1=CN([C@@H]2O[C@H](COP(=O)(O)OP(=O)(O)OC[C@H]3O[C@@H](n4cnc5c(N)ncnc54)[C@H](OP(=O)(O)O)[C@@H]3O)[C@@H](O)[C@H]2O)C=CC1; conditions: progesterone as the substrate; varied: cofactor

B1: rAtStR2 (A. thaliana steroid reductase 2) (Arabidopsis thaliana) (protein)
chain: MGSENGSLMRRNEVDENVALIFGVTGLVGREIVKTLLMSKPGWRIYGVARNPEINSMTKMYNFISCDLLNASETKQRLSPLQDIVSHVFWVTWSGEFPLDTDECCVQNKTMLMNALDAILPNAKRLKHFSLQTGMKHYVSLVEETMARGEGSSLYYYSEECPRKSSGKNFYYVLEDLLKEKITRSSVVWSVQRPGLLMGSSSRTLYNFMGSLCVYGAMCKYLNLPFVFGGTRECWEESYIDGSDSNLVAEQHIFAATSGKVREKGEAFNAINGVGFTWKEIWPEIGKKLGVQVNETTMFDEGFWFGREMVERKHVWDEIVVKEKLVRTEIEDLANWYFLDALFRCPFKLLGKREKVDRFGFKRKYRTLDSVLYWIDVMRDEKLIPL
notes: tag removal not mentioned
Which results are given for B1?
Km (purified protein [1]): 157.5 µM; kcat (purified protein [1]): 0.03 s⁻¹; kcat/Km (purified protein [1]): 163 M⁻¹ s⁻¹; Km (purified protein [2]): 64.7 µM; kcat (purified protein [2]): 0.15 s⁻¹; kcat/Km (purified protein [2]): 2310 M⁻¹ s⁻¹; Km (purified protein [3]): 41.0 µM; kcat (purified protein [3]): 0.12 s⁻¹; kcat/Km (purified protein [3]): 2930 M⁻¹ s⁻¹
